Source: patent US20230295284A1 (published 2023)

What follows are binders tested against FN-EIIIB (assay: BLI).
Sequence of FN-EIIIB (chain, as listed by the source): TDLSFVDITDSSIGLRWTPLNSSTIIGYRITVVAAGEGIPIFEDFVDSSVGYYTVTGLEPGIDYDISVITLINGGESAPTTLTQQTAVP

| Kd [nM] | Binder |
| --- | --- |
| 0.0626 | LMJ2.4C (VHH, sortase-tagged with biotin in the Western blots ; Purified by a his-tag for BLI and sortase-tagged with biotin in the Western blots. The tag letters are not stated for the free nanobody, so they are left out.) VHH: QVQLVEAGGGLVQAGGSLRLSCAASGSTFSHSAGGWYRQAPEKQRELVAGIRSDGNINYADSVKDRFTISRDNASNTMYLQMNNLKPEDTAVYVCNIRGSYGNTYYSRWGQGIQVTVSS |
| 0.402 | LMJ1.3J (VHH, sortase-tagged with biotin in the Western blots ; Purified by a his-tag for BLI and sortase-tagged with biotin in the Western blots. The tag letters are not stated for the free nanobody, so they are left out.) VHH: QVQLVGTGGGLVQAGGSLRLSCAASGSTFSHSAGGWYRQAPEKQRELVAGISSAGNINYADSVKDRFTISRDNASNTMYLQMNNLKPEDTAVYVCNIRGSYGNTYYSRWGQGTQVTVSS |
| 0.344 | LMJ2.6A (VHH, sortase-tagged with biotin in the Western blots ; Purified by a his-tag for BLI and sortase-tagged with biotin in the Western blots. The tag letters are not stated for the free nanobody, so they are left out.) VHH: RVQLVETGGGLVQAGGSLRLSCAVSGRTFSHSAGGWYRQAPEKQRELVAGIRSDGNINYADSVKDRFTISRDNASNTMYLQMNNLKPGDTAVYVCNIRGSYGNTYYSRWGQGTQVTVSS |
| 0.3 | LMJ1.2C (VHH, sortase-tagged with biotin in the Western blots ; Purified by a his-tag for BLI and sortase-tagged with biotin in the Western blots. The tag letters are not stated for the free nanobody, so they are left out.) VHH: QVQLVETGGGLVQAGGSLRLSCAASGSTFSHSAGGWYRQAPEKQRELVAGIRSDGNINYADSVKDRFTISRDNASNTMYLQMNNLKPEDTAVYVCNIRGSYGNTYYSRWGQGTQVTVSS |
| 0.973 | LMJ1.2G (VHH, sortase-tagged with biotin in the Western blots ; Purified by a his-tag for BLI and sortase-tagged with biotin in the Western blots. The tag letters are not stated for the free nanobody, so they are left out.) VHH: QVQLVETGGGLVQAGGSLRLSCAASGSTFSHSAGGWYRQAPEKQRELVAGIGSDGNINYADSVKDRFTISRDNASNTMYLQMNNLKPEDTAVYVCNIRGSYGNTYYSRWGQGTQVTVSS |
| 0.166 | LMJ2.5G (VHH, sortase-tagged with biotin in the Western blots ; Western blots used the nanobody sortase-tagged with biotin at a terminus. The BLI material was his-tag purified. Tag letters are not stated for the stand-alone nanobody and are left out.) VHH: QVQLVETEGGLVQAGGSLRLSCAASGSTFSHSAGGWYRQAPEKQRELVAGIRSDGNINYADSVKDRFTISRDNASNTMYLQMNNLKPEDTAVYVCNIRGSYGNTYYSRWGQGTQVTVSS |
| 0.0785 | LMJ2.5C (VHH, sortase-tagged with biotin in the Western blots ; Purified by a his-tag for BLI and sortase-tagged with biotin in the Western blots. The tag letters are not stated for the free nanobody, so they are left out.) VHH: QVQLVETGGGLVQAGGSLRLSCAASGSTFSHSAGGWYRQAPEKQRELVAGVRSDGNINYADSVKDRFTISRDNASNTMYLQMNNLKPEDTAVYVCNIRGSYGNTYYSRWGQGIQVTVSS |
| 0.0622 | LMJ2.5J (VHH, sortase-tagged with biotin in the Western blots ; Western blots used the nanobody sortase-tagged with biotin at a terminus. The BLI material was his-tag purified. Tag letters are not stated for the stand-alone nanobody and are left out.) VHH: QVQLVETRGGLVQAGGSLRLSCAVSGSTFSHSAGGWYRQAPEKQRELVAGIGSAGNINYADSVKDRFTISRDNASNTMYLQMNNLKPEDTAVYVCNIRGSYGNTYYSRWGQGTQVTVSS |
| 0.227 | LMJ2.5H (VHH, sortase-tagged with biotin in the Western blots ; Western blots used the nanobody sortase-tagged with biotin at a terminus. The BLI material was his-tag purified. Tag letters are not stated for the stand-alone nanobody and are left out.) VHH: QVQLVETGGGLVQAGGSLRLSCAVSGSTFSHSAGGWYRQAPEKQRELVAGIRSDGNINYADSVKDRFTISRDNASNTMYLQMNNLKPEDTAVYVCNIRGSYGNTYYSRWGQGTQVTVSS |
| 0.0254 | LMJ2.5I (VHH, sortase-tagged with biotin in the Western blots ; Purified by a his-tag for BLI and sortase-tagged with biotin in the Western blots. The tag letters are not stated for the free nanobody, so they are left out.) VHH: RVQLVETGGGLVQAGGSLRLSCAVSGSTFSHSAGGWYRQAPEKQRELVAGIRSDGNINYADSVKDRFTISRDNASNTMYLQMNNLKPEDTAVYVCNIRGSYGNTYYSRWGQGAQVTVSS |
| 1.82 | NJB2 (parental nanobody) (VHH, Purified by a his-tag. Its letters and position are not stated for the free nanobody, so it is left out.) VHH: QVQLVETGGGLVQAGGSLRLSCAASGSTFSHNAGGWYRQAPEKQRELVAGISSDGNINYADSVKDRFTISRDNASNTMYLQMNNLKPEDTAVYVCNIRGSYGNTYYSRWGQGTQVTVSS |
